# Reference: patent US20130115589A1, “Pharmaceutical Composition for Treatment and Prevention of Herpes Virus Infections” (THE UNIVERSITY OF TOKYO, priority 2010, published 2013)
# Target: gB of HSV-1 (Human herpesvirus 1, UniProt P06436)
# Details: 293T cells
molecule,measurement,value
"NMHC-IIBrod-Ig: fusion protein of Ig and the C-terminal fragment of NMHC-IIB, soluble form of NMHC-IIB (protein, left off: a dimerising Fc or GST; small tags and cut ends) FAQSKESEKKLKSLEAEILQLQEELASSERARRHAEQERDELADEITNSASGKSALLDEKRRLEARIAQLEEELEEEQSNMELLNDRFRKTTLQVDTLNAELAAERSAAQKSDNARQQLERQNKELKAKLQELEGAVKSKFKATISALEAKIGQLEEQLEQEAKERAAANKLVRRTEKKLKEIFMQVEDERRHADQYKEQMEKANARMKQLKRQLEEAEEEATRANASRRKLQRELDDATEANEGLSREVSTLKNRLRRGGPISFSSSRSGRRQLHLEGASLELSDDDTESKTSDVNETQPPQSE",staining of cells expressing gB on their surface,stained
